Source: article PMC3184960

B1: c-Myc-tagged wild-type XAP2 [human] / ERα, transfected in HeLa cells [not stated] (parent)
chain 1: MADIIARLREDGIQKRVIQEGRGELPDFQDGTKATFHYRTLHSDDEGTVLDDSRARGKPMELIIGKKFKLPVWETIVCTMREGEIAQFLCDIKHVVLYPLVAKSLRNIAVGKDPLEGQRHCCGVAQMREHSSLGHADLDALQQNPQPLIFHMEMLKVESPGTYQQDPWAMTDEEKAKAVPLIHQEGNRLYREGHVKEAAAKYYDAIACLKNLQMKEQPGSPEWIQLDQQITPLLLNYCQCKLVVEEYYEVLDHCSSILNKYDDNVKAYFKRGKAHAAVWNAQEAQADFAKVLELDPALAPVVSRELRALEARIRQKDEEDKARFRGIFSH
chain 2: MTMTLHTKASGMALLHQIQGNELEPLNRPQLKIPLERPLGEVYLDSSKPAVYNYPEGAAYEFNAAAAANAQVYGQTGLPYGPGSEAAAFGSNGLGGFPPLNSVSPSPLMLLHPPPQLSPFLQPHGQQVPYYLENEPSGYTVREAGPPAFYRPNSDNRRQGGRERLASTNDKGSMAMESAKETRYCAVCNDYASGYHYGVWSCEGCKAFFKRSIQGHNDYMCPATNQCTIDKNRRKSCQACRLRKCYEVGMMKGGIRKDRRGGRMLKHKRQRDDGEGRGEVGSAGDMRAANLWPSPLMIKRSKKNSLALSLTADQMVSALLDAEPPILYSEYDPTRPFSEASMMGLLTNLADRELVHMINWAKRVPGFVDLTLHDQVHLLECAWLEILMIGLVWRSMEHPGKLLFAPNLLLDRNQGKCVEGMVEIFDMLLATSSRFRMMNLQGEEFVCLKSIILLNSGVYTFLSSTLKSLEEKDHIHRVLDKITDTLIHLMAKAGLTLQQQHQRLAQLLLILSHIRHMSNKGMEHLYSMKCKNVVPLYDLLLEMLDAHRLHAPTSRGGASVEETDQSHLATAGSTSSHSLQKYYITGEAEGFPATV

Variants of: B1
Test: co-immunoprecipitation (IP with ERα antibody, Western blot with c-Myc antibody, band densitometry)
Conditions: 24 h after transfection
[1] = 10 nM E2 for 1 h, parent: 1, read off a plot
[2] = DMSO (veh) for 1 h, parent: 0.9, read off a plot

Row | Variant | ratio to parent [1] | ratio to parent [2]
1 | chain 1 MADIIARLREDGIQKRVIQEGRGELPDFQDGTKATFHYRTLHSDDEGTMLDDSRARGKPMELIIGKKFKLPVWETIVCTMREGEIAQFLCDIKHVVLYPLVAKSLRNIAVGKDPLEGQRHCCGVAQMREHSSLGHADLDALQQNPQPLIFHMEMLKVESPGTYQQDPWAMTDEEKAKAVPLIHQEGNRLYREGHVKEAAAKYYDAIACLKNLQMKEQPGSPEWIQLDQQITPLLLNYCQCKLVVEEYYEVLDHCSSILNKYDDNVKAYFKRGKAHAAVWNAQEAQADFAKVLELDPALAPVVSRELRALEARIRQKDEEDKARFRGIFSH [chain 1 V49M] | 0.97 | 0.85
2 | chain 1 MADIIARLREDGIQKRVIQEGRGELPDFQDGTKATFHYRTLHSDDEGTVLDDSRARGKPMELIIGKKFKLPVWETIVCTMREGEIAQFLCDIKHVVLYPLVAKSLRNIAVGKDPLEGQRHCCGVAQMREHSSLGHADLDALQQNPQPLIFHMEMLKVESPGTYQQDPWAMTDEEKAKAVPLIHQEGNRLYREGHVKEAAAKYYDAIACLKNLQMKEQPGSPEWIQLDQQITPLLLNYCQCKLVVEEYYEVLDHCSSILNKYDDNVKAYFKWGKAHAAVWNAQEAQADFAKVLELDPALAPVVSRELRALEARIRQKDEEDKARFRGIFSH [chain 1 R271W] | 0.68 | 0.85
